Data published in publication PMC11832919 (Nature Communications, 2025).

Molecular target: StrepTag II-IsdB (Staphylococcus aureus iron-regulated surface determinant protein B) (S. aureus, UniProt Q2FZF0 41-613)
Assay: SAXS

Chain of StrepTag II-IsdB (Staphylococcus aureus iron-regulated surface determinant protein B) (Q2FZF0 41-613): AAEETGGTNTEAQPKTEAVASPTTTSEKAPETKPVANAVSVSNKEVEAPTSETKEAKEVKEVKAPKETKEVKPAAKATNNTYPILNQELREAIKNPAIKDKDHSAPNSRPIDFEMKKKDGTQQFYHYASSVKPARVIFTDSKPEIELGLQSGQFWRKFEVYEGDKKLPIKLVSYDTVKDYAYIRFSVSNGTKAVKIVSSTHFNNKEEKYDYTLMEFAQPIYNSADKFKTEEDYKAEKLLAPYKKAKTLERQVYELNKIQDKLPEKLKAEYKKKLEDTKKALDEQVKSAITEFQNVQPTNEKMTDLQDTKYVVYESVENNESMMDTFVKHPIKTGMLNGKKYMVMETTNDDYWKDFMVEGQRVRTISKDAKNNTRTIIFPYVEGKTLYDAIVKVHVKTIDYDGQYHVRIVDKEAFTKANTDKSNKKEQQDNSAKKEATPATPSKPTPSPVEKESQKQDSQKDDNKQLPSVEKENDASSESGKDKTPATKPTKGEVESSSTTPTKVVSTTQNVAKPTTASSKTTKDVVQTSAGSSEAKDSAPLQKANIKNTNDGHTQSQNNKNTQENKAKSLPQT

B1: human methemoglobin (coordinating oxidized heme) (complex)
chain 1: not shown
chain 2: not shown
For B1, the Kd was 1680 ± 620 nM.
